No end group written: not given here.
T1: PDZ domain of SYNJ2BP (MBP-PDZ) (human, UniProt P57105 13-100)
T1 sequence: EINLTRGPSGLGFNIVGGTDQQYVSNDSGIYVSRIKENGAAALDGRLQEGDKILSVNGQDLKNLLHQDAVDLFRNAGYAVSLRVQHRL

T2: PDZ domain of ARHGEF12 (MBP-PDZ) (human, UniProt Q9NZN5 72-151)
T2 sequence: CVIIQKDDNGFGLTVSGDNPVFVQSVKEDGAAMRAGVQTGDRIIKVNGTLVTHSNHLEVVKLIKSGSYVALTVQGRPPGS


Key:
[1] = target: T1, PDZ domain of SYNJ2BP (MBP-PDZ); assay: ITC
[2] = target: T2, PDZ domain of ARHGEF12 (MBP-PDZ); assay: ITC

binding result [1]	binding result [2]	Binder
binds	binds	unphosphorylated RSK1 683-735 peptide (peptide) peptide: QSQLSHQDLQLVKGAMAATYSALNSSKPTPQLKPIESSILAQRRVRKLPSTTL
binds		phosphorylated RSK1 683-735 peptide (also: phosphorylated, sites not given here) peptide: QSQLSHQDLQLVKGAMAATYSALNSSKPTPQLKPIESSILAQRRVRKLPSTTL

Source: publication doi:10.1101/419721 (bioRxiv, 2018)
